This is an account of results in patent US20250340613A1 (JOINT STOCK COMPANY BIOCAD, published 2025).

T1: IL5R-His, Interleukin-5 receptor subunit alpha (Homo sapiens) aa 22-342 (Homo sapiens, UniProt Q01344 22-342)
T1 construct: not shown: His tag as the name implies
T1 sequence (looked up): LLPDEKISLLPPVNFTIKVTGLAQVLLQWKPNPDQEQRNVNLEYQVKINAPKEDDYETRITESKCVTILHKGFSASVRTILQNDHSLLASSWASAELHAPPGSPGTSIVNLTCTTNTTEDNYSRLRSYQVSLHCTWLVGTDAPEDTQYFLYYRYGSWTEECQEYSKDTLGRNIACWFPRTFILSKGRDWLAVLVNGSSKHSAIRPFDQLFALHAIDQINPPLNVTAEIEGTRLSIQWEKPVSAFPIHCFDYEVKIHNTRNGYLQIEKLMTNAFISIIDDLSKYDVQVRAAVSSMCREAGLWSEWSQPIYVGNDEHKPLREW

T2: hIL4R-His, Interleukin-4 receptor subunit alpha (Homo sapiens) aa 27-227 (Homo sapiens, UniProt P24394 27-227)
T2 construct: range 27-227; not shown: His tag as the name implies
T2 sequence (looked up): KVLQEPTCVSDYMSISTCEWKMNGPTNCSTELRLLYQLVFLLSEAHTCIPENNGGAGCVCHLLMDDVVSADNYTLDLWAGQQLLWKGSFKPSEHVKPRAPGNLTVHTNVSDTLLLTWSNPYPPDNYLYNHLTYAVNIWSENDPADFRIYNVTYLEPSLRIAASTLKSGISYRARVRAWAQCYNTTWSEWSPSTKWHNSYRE

T3: hCD38-Avi, ADP-ribosyl cyclase/cyclic ADP-ribose hydrolase 1 (Homo sapiens) aa 43-300 (Homo sapiens, UniProt P28907 43-300)
T3 construct: range 43-300; not shown: Avi tag as the name implies
T3 sequence (looked up): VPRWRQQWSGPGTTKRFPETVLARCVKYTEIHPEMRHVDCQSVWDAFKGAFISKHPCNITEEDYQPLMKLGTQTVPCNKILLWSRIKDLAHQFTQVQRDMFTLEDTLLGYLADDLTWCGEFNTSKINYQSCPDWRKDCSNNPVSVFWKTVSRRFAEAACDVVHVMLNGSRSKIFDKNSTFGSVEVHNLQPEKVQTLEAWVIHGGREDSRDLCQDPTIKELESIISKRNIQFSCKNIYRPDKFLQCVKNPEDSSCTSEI

B1: 02-004, bivalent bispecific chimeric antibody that specifically binds to PD1 and CD20 (bispecific antibody, human IgG1, kappa, L234A L235A)
heavy 1: QVQLVQSGGGLVQPGGSLRLSCAASGFTFSSYWMYWVRQVPGKGLEWVSAIDTGGGRTYYADSVKGRFAISRVNAKNTMYLQMNSLRAEDTAVYYCARDEGGGTGWGVLKDWPYGLDAWGQGTLVTVSSASTKGPSVFPLAPSSKSTSGGTAALGCLVKDYFPEPVTVSWNSGALTSGVHTFPAVLQSSGLYSLSSVVTVPSSSLGTQTYICNVNHKPSNTKVDKRVEPKSCDKTHTCPPCPAPEAAGGPSVFLFPPKPKDTLYITREPEVTCVVVDVSHEDPEVKFNWYVDGVEVHNAKTKPREEQYNSTYRVVSVLTVLHQDWLNGKEYKCKVSNKALPAPIEKTISKAKGQPREPQVCTLPPSRDELTKNQVSLSCAVKGFYPSDIAVEWESNGQPENNYKTTPPVLDSDGSFFLVSKLTVDKSRWQQGNVFSCSVMHEALHNHYTQKSLSLSPGK
light 1: QPVLTQPLSVSVALGQTARITCGGNNIGSKNVHWYQQKPGQAPVLVIYRDSNRPSGIPERFSGSNSGNTATLTISRAQAGDEADYYCQVWDSSTAVFGTGTKLTVLQRTVAAPSVFIFPPSDEQLKSGTASVVCLLNNFYPREAKVQWKVDNALQSGNSQESVTEQDSKDSTYSLSSTLTLSKADYEKHKVYACEVTHQGLSSPVTKSFNRGEC
heavy 2: not shown
light 2: DIQMTQSPSSLSASVGDRVTITCRASSSVSYMHWYQQKPGKAPKPLIYAPSNLASGVPSRFSGSGSGTDFTLTISSLQPEDFATYYCQQWSFNPPTFGQGTKVEIKQRQVKPEAWLSSGPSPGPGRLQLVCHVSGFYPKPVWVMWMRGEQEQQGTQLGDILPNANWTWYLRATLDVADGEAAGLSCRVKHSSLEGQDIILYWRGSC
notes: Produced in CHO cells
B2: 02-006, bivalent bispecific chimeric antibody that specifically binds to PD1 and CSF1R (bispecific antibody, human IgG1, kappa, L234A L235A)
heavy 1: B1 heavy 1
light 1: B1 light 1
heavy 2: not shown
light 2: QAGLTQPPSVSVAPGQTARITCGGNNIGSKSVHWYQQKPGQAPVLVVYGDSDRPSGIPERFSGSNSGNTATLTISRVEAGDEADYYCQVWDISSDHVVFGGGTQLTVLQRQVKPEAWLSSGPSPGPGRLQLVCHVSGFYPKPVWVMWMRGEQEQQGTQLGDILPNANWTWYLRATLDVADGEAAGLSCRVKHSSLEGQDIILYWRGSC
notes: Produced in CHO cells
B3: 02-005, bivalent bispecific chimeric antibody that specifically binds to PD1 and CD20 (bispecific antibody, human IgG1, kappa, L234A L235A)
heavy 1: EVQLVESGGGLVQPGGSLRLSCAASGYTFTSYNMHWVRQAPGKGLEWVGAIYPGNGDTSYNQKFKGRFTISVDKSKNTLYLQMNSLRAEDTAVYYCARVVYYSNSYWYFDVWGQGTLVTVSSASTKGPSVFPLAPSSKSTSGGTAALGCLVKDYFPEPVTVSWNSGALTSGVHTFPAVLQSSGLYSLSSVVTVPSSSLGTQTYICNVNHKPSNTKVDKRVEPKSCDKTHTCPPCPAPEAAGGPSVFLFPPKPKDTLYITREPEVTCVVVDVSHEDPEVKFNWYVDGVEVHNAKTKPREEQYNSTYRVVSVLTVLHQDWLNGKEYKCKVSNKALPAPIEKTISKAKGQPREPQVCTLPPSRDELTKNQVSLSCAVKGFYPSDIAVEWESNGQPENNYKTTPPVLDSDGSFFLVSKLTVDKSRWQQGNVFSCSVMHEALHNHYTQKSLSLSPGK
light 1: DIQMTQSPSSLSASVGDRVTITCRASSSVSYMHWYQQKPGKAPKPLIYAPSNLASGVPSRFSGSGSGTDFTLTISSLQPEDFATYYCQQWSFNPPTFGQGTKVEIKRTVAAPSVFIFPPSDEQLKSGTASVVCLLNNFYPREAKVQWKVDNALQSGNSQESVTEQDSKDSTYSLSSTLTLSKADYEKHKVYACEVTHQGLSSPVTKSFNRGEC
heavy 2: not shown
light 2: QPVLTQPLSVSVALGQTARITCGGNNIGSKNVHWYQQKPGQAPVLVIYRDSNRPSGIPERFSGSNSGNTATLTISRAQAGDEADYYCQVWDSSTAVFGTGTKLTVLQQRQVKPEAWLSSGPSPGPGRLQLVCHVSGFYPKPVWVMWMRGEQEQQGTQLGDILPNANWTWYLRATLDVADGEAAGLSCRVKHSSLEGQDIILYWRGSC
notes: Produced in CHO cells
B4: 02-007, bivalent bispecific chimeric antibody that specifically binds to PD1 and CSF1R (bispecific antibody, human IgG1, kappa, L234A L235A)
heavy 1: QVQLVESGGGLVRPGGSLRLSCAASEFTFDDYAMSWVRQAPGKGLEWVSAISWNGGSTNYADSVKGRFTISRDNAKNSLYLQMNSLRAEDTALYYCASTVEVAHRRLYKYLEVWGQGTLVTVSSASTKGPSVFPLAPSSKSTSGGTAALGCLVKDYFPEPVTVSWNSGALTSGVHTFPAVLQSSGLYSLSSVVTVPSSSLGTQTYICNVNHKPSNTKVDKRVEPKSCDKTHTCPPCPAPEAAGGPSVFLFPPKPKDTLYITREPEVTCVVVDVSHEDPEVKFNWYVDGVEVHNAKTKPREEQYNSTYRVVSVLTVLHQDWLNGKEYKCKVSNKALPAPIEKTISKAKGQPREPQVCTLPPSRDELTKNQVSLSCAVKGFYPSDIAVEWESNGQPENNYKTTPPVLDSDGSFFLVSKLTVDKSRWQQGNVFSCSVMHEALHNHYTQKSLSLSPGK
light 1: QAGLTQPPSVSVAPGQTARITCGGNNIGSKSVHWYQQKPGQAPVLVVYGDSDRPSGIPERFSGSNSGNTATLTISRVEAGDEADYYCQVWDISSDHVVFGGGTQLTVLRTVAAPSVFIFPPSDEQLKSGTASVVCLLNNFYPREAKVQWKVDNALQSGNSQESVTEQDSKDSTYSLSSTLTLSKADYEKHKVYACEVTHQGLSSPVTKSFNRGEC
heavy 2: not shown
light 2: B3 light 2
notes: Produced in CHO cells
B5: 02-008, bivalent bispecific chimeric antibody that specifically binds to CD20 and CSF1R (bispecific antibody, human IgG1, kappa, L234A L235A)
heavy 1: B3 heavy 1
light 1: B3 light 1
heavy 2: not shown
light 2: B2 light 2
notes: Produced in CHO cells

T4 sequence (P21860 21-643 limits assumed): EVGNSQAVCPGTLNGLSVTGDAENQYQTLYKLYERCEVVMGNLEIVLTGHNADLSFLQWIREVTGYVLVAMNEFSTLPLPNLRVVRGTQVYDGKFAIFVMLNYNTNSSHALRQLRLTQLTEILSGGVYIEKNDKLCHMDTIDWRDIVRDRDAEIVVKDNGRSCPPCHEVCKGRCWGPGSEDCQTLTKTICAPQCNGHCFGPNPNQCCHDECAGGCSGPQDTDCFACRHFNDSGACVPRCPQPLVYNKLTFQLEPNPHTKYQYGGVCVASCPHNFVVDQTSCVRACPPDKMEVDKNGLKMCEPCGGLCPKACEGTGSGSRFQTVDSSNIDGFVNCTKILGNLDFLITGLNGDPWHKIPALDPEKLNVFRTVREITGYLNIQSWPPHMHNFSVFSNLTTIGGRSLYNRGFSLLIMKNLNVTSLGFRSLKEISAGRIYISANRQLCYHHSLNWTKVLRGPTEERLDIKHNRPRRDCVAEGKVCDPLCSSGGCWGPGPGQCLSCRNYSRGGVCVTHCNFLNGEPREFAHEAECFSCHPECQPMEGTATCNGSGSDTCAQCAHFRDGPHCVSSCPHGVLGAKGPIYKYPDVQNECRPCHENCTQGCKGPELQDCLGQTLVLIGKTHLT

The first experiment has as its target T1, IL5R-His, Interleukin-5 receptor …. The experiment can be described thus: BLI Octet RED 384; antibody on ProA sensor, antigen 30 ug/ml.
B1: the binding result is listed as “no binding (tested: 757.6 nM)”.

As for B2, the binding result is recorded as “no binding (tested: 757.6 nM)”.

On to B3, for which the binding result is on record as “no binding (tested: 757.6 nM)”.

In the case of B4, the binding result is recorded as “no binding (tested: 757.6 nM)”.

For the molecule B5, the binding result is reported as “no binding (tested: 757.6 nM)”.

The next experiment addresses T2, hIL4R-His, Interleukin-4 receptor …. The experiment is described as above.
As to B1, the binding result was “no binding (tested: 1154 nM)”.

Turning to B4, the binding result is reported as “no binding (tested: 1154 nM)”.

For another experiment, the target named is T3, hCD38-Avi, ADP-ribosyl cyclase/cyclic …. The experiment is described as above.
For the molecule B1, the binding result was “no binding (tested: 854.7 nM)”.

With B2, the binding result is “no binding (tested: 854.7 nM)”.

For the molecule B3, the binding result is on record as “no binding (tested: 854.7 nM)”.

On to B4, for which the binding result is listed as “no binding (tested: 854.7 nM)”.

With B5, the binding result is listed as “no binding (tested: 854.7 nM)”.

Another experiment addresses T4, Her3-H6F, Receptor tyrosine-protein kinase erbB-3 (Homo sapiens) aa 21-643 (Homo sapiens, UniProt P21860 21-643).
T4 construct: not shown: His and FLAG tags implied by the name 'H6F'
The experiment is described as above.
Regarding B1, the binding result is “no binding (tested: 420.8 nM)”.

For a further experiment, the target named is T5, extracellular domain of the human CSF1R protein (hCSF1R_His) (Homo sapiens, UniProt P07333 20-512).
T5 construct: range 20-512; Molecular weight 57.4 kDa; made in CHO cells; also called hCSF1_His; not shown: C-terminal His and FLAG tags
T5 sequence (P07333 20-512 limits assumed): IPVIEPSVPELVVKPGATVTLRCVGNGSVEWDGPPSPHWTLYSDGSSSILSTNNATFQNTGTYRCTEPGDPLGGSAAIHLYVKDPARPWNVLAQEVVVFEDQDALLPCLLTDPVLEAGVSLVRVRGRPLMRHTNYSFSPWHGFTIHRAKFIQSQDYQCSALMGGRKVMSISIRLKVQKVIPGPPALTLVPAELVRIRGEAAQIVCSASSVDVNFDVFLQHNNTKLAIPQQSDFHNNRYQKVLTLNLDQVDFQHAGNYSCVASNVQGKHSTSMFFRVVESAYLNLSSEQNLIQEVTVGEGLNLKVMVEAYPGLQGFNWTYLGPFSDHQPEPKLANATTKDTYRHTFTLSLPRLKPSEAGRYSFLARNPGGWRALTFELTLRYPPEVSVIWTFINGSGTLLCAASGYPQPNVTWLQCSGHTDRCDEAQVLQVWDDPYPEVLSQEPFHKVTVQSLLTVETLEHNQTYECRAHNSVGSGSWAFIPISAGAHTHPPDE
The experiment is described as above.
Regarding B1, the binding result is “no binding (tested: 522.5 nM)”.

Turning to B3, the binding result is reported as “no binding (tested: 522.5 nM)”.
